In test [1] the target is human P2X7 (hP2X7) (human) (UniProt Q99572). As to the kind of experiment: cell-based or functional assay.
The target is the same in test [2]. Put plainly: flow cytometry on human peripheral blood lymphocytes of a single donor, CD4+ cells. Background: In flow cytometry, cells or beads pass a laser one at a time.
For test [3] the target is unchanged. Put plainly: flow cytometry on human peripheral blood lymphocytes of a single donor, CD4- cells.
The target is the same in test [4]. As to the kind of experiment: flow cytometry, HEK cells co-transfected with GFP and hP2X7, bound antibody detected with Alexa647 anti-mouse IgG; other quadrants: UL 0.5, LL 9, LR 19.
The target of another test is T1, rat P2X7 (rP2X7) (Rattus norvegicus, UniProt Q64663 1-595).
T1 sequence: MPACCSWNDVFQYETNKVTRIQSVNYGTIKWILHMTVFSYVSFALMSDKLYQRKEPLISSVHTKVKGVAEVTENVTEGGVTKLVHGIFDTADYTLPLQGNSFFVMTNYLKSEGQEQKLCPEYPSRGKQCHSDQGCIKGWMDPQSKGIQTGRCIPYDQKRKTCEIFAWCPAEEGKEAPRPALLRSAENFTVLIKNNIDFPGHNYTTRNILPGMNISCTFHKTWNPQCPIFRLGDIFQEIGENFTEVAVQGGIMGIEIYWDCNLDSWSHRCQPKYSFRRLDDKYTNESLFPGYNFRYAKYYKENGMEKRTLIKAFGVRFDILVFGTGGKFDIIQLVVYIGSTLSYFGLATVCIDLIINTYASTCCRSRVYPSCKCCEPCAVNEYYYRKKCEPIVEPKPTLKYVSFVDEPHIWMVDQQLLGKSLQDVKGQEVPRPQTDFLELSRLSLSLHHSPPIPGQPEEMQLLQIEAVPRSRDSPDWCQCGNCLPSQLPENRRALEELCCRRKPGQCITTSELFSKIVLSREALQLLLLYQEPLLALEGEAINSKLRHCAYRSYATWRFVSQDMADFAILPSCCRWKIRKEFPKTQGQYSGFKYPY
As to the kind of experiment: flow cytometry, HEK cells co-transfected with GFP and rP2X7, bound antibody detected with Alexa647 anti-mouse IgG; other quadrants: UL 1, LL 7.5, LR 21.

The target in the next test is T2, mouse P2X7 (mP2X7) (mus musculus, UniProt Q9Z1M0 1-595).
T2 construct: Also used here for endogenous P2X7 on Yac-1 cells, primary mouse lymphocytes and macrophages
T2 chain: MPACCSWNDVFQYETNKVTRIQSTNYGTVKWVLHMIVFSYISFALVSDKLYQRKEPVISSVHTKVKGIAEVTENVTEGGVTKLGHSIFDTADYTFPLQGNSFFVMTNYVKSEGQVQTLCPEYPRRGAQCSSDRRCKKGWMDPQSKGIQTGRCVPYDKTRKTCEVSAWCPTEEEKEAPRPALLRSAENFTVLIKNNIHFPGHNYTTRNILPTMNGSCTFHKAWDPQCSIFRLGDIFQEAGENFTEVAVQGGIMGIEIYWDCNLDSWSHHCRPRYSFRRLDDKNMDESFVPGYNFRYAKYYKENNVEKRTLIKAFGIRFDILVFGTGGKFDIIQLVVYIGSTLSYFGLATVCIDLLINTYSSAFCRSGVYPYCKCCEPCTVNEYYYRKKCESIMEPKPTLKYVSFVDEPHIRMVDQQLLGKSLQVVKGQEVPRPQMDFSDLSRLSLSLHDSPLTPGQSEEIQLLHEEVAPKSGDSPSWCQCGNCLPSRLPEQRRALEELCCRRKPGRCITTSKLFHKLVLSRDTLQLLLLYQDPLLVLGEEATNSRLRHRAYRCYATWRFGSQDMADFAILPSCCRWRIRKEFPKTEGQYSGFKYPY
Put plainly: flow cytometry, HEK cells co-transfected with GFP and mP2X7, bound antibody detected with Alexa647 anti-mouse IgG; other quadrants: UL 64, LL 26, LR 5.5.

The target of test [5] is human P2X7 (hP2X7) (human) (UniProt Q99572). Put plainly: flow cytometry of whole blood of one donor, gate on lymphocytes, Alexa647 conjugate with anti-CD4; unblocked = pre-incubated with control 1067-Fc; lower quadrants 32 and 33.
The target is the same in test [6]. As to the kind of experiment: flow cytometry of whole blood of one donor, gate on lymphocytes, Alexa647 conjugate with anti-CD4; blocked = pre-incubated with excess unlabelled Nb-Fc (legend: 3 ug each of 1c113-Fc and 3c23-Fc); lower quadrants 43 and 55.

human P2X7 (hP2X7) (human), sequence (Q99572 whole entry): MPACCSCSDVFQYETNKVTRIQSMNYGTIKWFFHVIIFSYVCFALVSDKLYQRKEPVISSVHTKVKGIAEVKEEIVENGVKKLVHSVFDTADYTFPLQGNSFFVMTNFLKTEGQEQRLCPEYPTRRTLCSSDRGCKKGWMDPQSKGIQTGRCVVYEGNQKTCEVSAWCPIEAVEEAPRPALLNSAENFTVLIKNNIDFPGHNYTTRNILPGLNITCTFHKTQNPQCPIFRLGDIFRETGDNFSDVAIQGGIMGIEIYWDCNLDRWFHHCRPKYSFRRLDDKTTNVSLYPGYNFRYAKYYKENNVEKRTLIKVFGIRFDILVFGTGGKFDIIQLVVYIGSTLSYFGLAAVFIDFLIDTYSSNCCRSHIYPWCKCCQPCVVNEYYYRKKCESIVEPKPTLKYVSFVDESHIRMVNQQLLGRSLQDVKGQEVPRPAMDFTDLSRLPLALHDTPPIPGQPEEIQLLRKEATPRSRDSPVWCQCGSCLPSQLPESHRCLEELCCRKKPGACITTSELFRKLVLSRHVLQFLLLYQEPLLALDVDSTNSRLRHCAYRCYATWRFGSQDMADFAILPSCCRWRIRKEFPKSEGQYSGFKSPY

For the substance “mAb L4 (anti-hP2X7 mouse monoclonal antibody)”, in test [1], the IC50 [nM], blockade of L-selectin (CD62L) shedding in transfected HEK cells, 4 mM ATP is above 19 nM. The substance further gave an IC50 [ng/ml], blockade of L-selectin (CD62L) shedding in transfected HEK cells, 4 mM ATP in test [1] above 2800 ng/mL. In addition, the MFI in test [2] worked out at 11; in test [3], 10. The % of cells in the GFP+ / anti-mIgG A647+ quadrant (upper right) in test [4] was found to be 72%; with rat P2X7 (rP2X7), 70%; in the test with mouse P2X7 (mP2X7) it was 4.8%. Further, the % of lymphocytes in the CD4+ / AF647+ quadrant (upper right), unblocked in test [5] turned out to be 22%. This substance gave a % of lymphocytes in the CD4- / AF647+ quadrant (upper left), unblocked in test [5] of 13%. In test [6], the % of lymphocytes in the CD4+ / AF647+ quadrant (upper right), blocked was 0.6%. For the same substance, the % of lymphocytes in the CD4- / AF647+ quadrant (upper left), blocked in test [6] stood at 0.9%.

Source of the values: patent publication US20180244769A1 (Ablynx, published 2018).
